Target: the molecule itself
Assay: SEC; Superdex 75, 50 mM Tris-HCl pH 8.0, 300 mM NaCl; calibrated with molecular mass standards

B1: E2F4_(1-88) (domain or fragment)
chain: not shown
notes: The section on ITC sample preparation describes an E2F4_(1-88) protein purified on a GST column and cut with 3C protease; also called pET28-E2F4_(1-88)
  stoichiometry N: 2

From PMC8692152, “Cellular Id1 inhibits hepatitis B virus transcription by interacting with the novel covalently closed circular DNA-binding protein E2F4” (International Journal of Biological Sciences, 2022)
